Measurements reported in US9278119B2, “Treatment of prostate cancer and a method for determining the prognosis for prostate cancer patients” (WNTRESEARCH AB, priority 2011, dated 2016).
Where no end group is shown, it is not given here. The star is where a group is joined. For = O=C*

Legend:
22Rv1 cells = experiment: Matrigel invasion assay, 22Rv1 cells; type: cell-based, human; details: 24 h
Method: (§1) Four human PCa cell lines LNCaP, 22Rv1, PC-3, and DU145 were purchased from American Type Culture Collection [ATCC] (Manassas, Va.). The immortalized PNT2 normal human prostate epithelial cells (cat No. 95012613) were obtained from European Collection of Cell Cultures (ECACC), (Sigma-Aldrich, St. Louis, Mo.). LNCaP, 22Rv1, DU145 and PNT2 cells lines were cultured in RPMI-1640 medium, supplemented with 10% fetal bovine serum (FBS) and 1% pest (penicillin and streptomycin). PC-3 cells were grown in Hyclone Ham's F12 medium supplemented with 10% FBS and 1% pest. All in vitro experiments were performed when cells were ˜70% confluent. For invasion assay experiments cells were grown in serum free medium (SFM) for 24 hours. RPMI-1640 medium (R0883), FBS (F6178), penicillin streptomycin (P0781) were purchased from Sigma-Aldrich, whereas Ham's F12 medium (SH30026.01) was obtained from Thermo-Scientific (Waltham, Mass.). All cell lines were regularly tested for the absence of mycoplasma infection.
(§2) Cell invasion capacities were measured in a standard commercial invasion assay. In this study the inventors used BD BioCoat™ Matrigel™ Invasion Chambers (BD Biosciences, Bedford, Mass.) in accordance with the manufacturer's protocol. […] Invaded cells were counted either in an 460 inverted microscope or in Olympus BX51 Fluorescence Microscope (Olympus optical Co. Ltd, Japan).

DU145 cells = experiment: Matrigel invasion assay, DU145 cells; type: cell-based, human; details: 24 h
Method: as §1, §2

LNCaP cells = experiment: Matrigel invasion assay, LNCaP cells; type: cell-based, human; details: rWnt5a 0.4 μg/ml, 24 h, vs vehicle; FIG. 3B
Method: as §1, §2

PC3 cells [1] = experiment: Matrigel invasion assay, PC3 cells; type: cell-based, human; details: rWnt5a 0.4 μg/ml, 24 h, vs vehicle; FIG. 3B
Method: as §1, §2

PC3 cells [2] = details: addition of rWnt5a to PC3 cells; report by Wang et al [26]; cited from earlier work

For “formylated derivative of MDGCEL (SEQ. ID. NO. 2) (For-MDGCEL; listed as Homo sapiens) [Foxy-5, the N-formylated hexapeptide Foxy5, Wnt5a derived peptide]”, the relative invasion (22Rv1 cells; Foxy-5 100 microM, FIG. 6A) was “significantly inhibited the invasion” and the relative invasion (DU145 cells; Foxy-5 100 microM, FIG. 6B) was “significantly inhibited the invasion”.

B1: rWnt5a: recombinant Wnt5a protein (rWnt5a, R&D Systems, Minneapolis, Minn.) (protein, UniProt P41221 62-380, looked up)
Protein Wnt-5a: IIGAQPLCSQLAGLSQGQKKLCHLYQDHMQYIGEGAKTGIKECQYQFRHRRWNCSTVDNTSVFGRVMQIGSRETAFTYAVSAAGVVNAMSRACREGELSTCGCSRAARPKDLPRDWLWGGCGDNIDYGYRFAKEFVDARERERIHAKGSYESARILMNLHNNEAGRRTVYNLADVACKCHGVSGSCSLKTCWLQLADFRKVGDALKEKYDSAAAMRLNSRGKLVQVNSRFNSPTTQDLVYIDPSPDYCVRNESTGSLGTQGRLCNKTSEGMDGCELMCCGRGYDQFKTVQTERCHCKFHWCCYVKCKKCTEIVDQFVCK
In the case of B1, the relative invasion (22Rv1 cells; rWnt5a 0.4 μg/ml, vs vehicle, p=0.0001, FIG. 3B) is reported as “decreased the invasive behavior”, the relative invasion (DU145 cells; rWnt5a 0.4 μg/ml, vs vehicle, p<0.0001, FIG. 3B) is reported as “decreased the invasive behavior” and the relative invasion (LNCaP cells) is reported as “Neither the LNCaP nor the PC3 cells did respond”. The relative invasion (PC3 cells [1]) was “Neither the LNCaP nor the PC3 cells did respond” and the “response in migration wound scratch assay” value (PC3 cells [2]) was “did not respond”.
